Experimental data from US20130101571A9, “ANTIDOTES FOR NITROBENZODIAZEPINES” (Academia Sinica, priority 2011, published 2013).
“Also recorded” adds a separate entry of the source.

Assays:
[1] = test system: nfsb-wt and nfsb-n71s/f124w-transformed E. coli BL21(DE3); assay: Disk assay for FZ sensitivity (disk diffusion, zones of inhibition); assay type: cell-based; settings: E. coli expressing wild-type enzyme or N71S/F124W mutant; dosage up to 400 μg; 24 hrs
Protocol: LB plates were uniformly streaked with 0.1 ml of bacterial cell suspensions having an OD600 value of 0.8. Sterile 7 mm filter paper disks saturated with 7 μl of each chemical, including FZ alone, metronidazole (MTZ) alone, and a combination of FZ and MTZ at a ratio of 1/1 by weight, in the amounts indicated in FIG. 4 were placed on the plates. The cells were incubated for 24 hrs before the zones of inhibition were measured.^22

[2] = 7AFZ production from FZ by purified NfsB proteins (HPLC); assay type: biochemical; settings: for 7AFZ formation: FZ 64 μM, purified NfsB protein 10 μg, NADPH 2 mM, 2 h at 37° C., mean±S.D. from three incubations; for production of 7AFZ compared to the wild-type enzyme (in words): anaerobic conditions, FIG. 2B
Protocol: Production of 7AFZ was performed under both aerobic or anaerobic conditions. For anaerobic incubation, nitrogen was inlet into an anaerobic incubator (Biotrace). The reaction mixture consisted of FZ (64 μM), purified NfsB proteins (10 μg), MgCl2 (3.3 mM), and NADPH (2 mM) in 100 mM potassium phosphate buffer (pH 7.4). After incubation for 2 h at 37° C., the reaction was terminated by the addition of a methanol solution (200 μl) containing bromazepam (1 μg/mL), which acted as an internal control. The reaction products were extracted via sonication and analyzed by HPLC at 240 nm with a procedure described previously.^13 The detection limit for 7AFZ or FZ was less than 3-5 ng with 83-86% of recovery.

[3] = Kinetic study monitoring the rate of FZ disappearance (standard nitroreductase assay of E. coli NfsB); assay type: biochemical; settings: aerobic; for Km / Vmax: FZ 4-256 μM, linear plot; for Km / Vmax / Specific activity / Specific activity relative to wild type: NADPH 2 mM; for Specific activity / Specific activity relative to wild type: against FZ
Protocol: A kinetic study was carried out by monitoring the rate of FZ disappearance. FZ (4-256 μM) was incubated with purified NfsB proteins (10 μg) under the aerobic conditions described above for 2 h in the presence of NADPH at a fixed concentration of 2 mM.
Data were analyzed and calculated via linear plot (13). The amounts of FZ were obtained via the standard nitroreductase assay of E. coli NfsB in the presence of a fixed concentration of cofactor NADPH (2 mM).

FZ-induced hypnosis = assay: Sleep-time (anti-FZ hypnosis) study in mice; assay type: in vivo, Balb/c mice; settings: for effect on sleep-time in treated mice (in words): FZ-treated Balb/c mice, FIG. 5A
Protocol: Male Balb/c mice were purchased from the Animal Center, College of Medicine, National Taiwan University (NTUMC), and were housed in the air-conditioned animal quarters on a 12-h light/dark cycle (temperature 23-25° C.). The animals had free access to water and rodent laboratory chow (Purina Mills Inc.) with the experimental procedures being approved by the Institutional Care and Use Committee at NTUMC.
A sleep-time study in mice was started at the age of seven weeks (body weight ranged from 17.6-19.2 g) following experimental procedures modified from previous studies.^23 Briefly, mice were divided into three groups (at least 4 mice per group) and injected i.p. with 2 mg/kg body weight of FZ from the stock solution (0.4 mg/ml in corn oil). One minute later, mice in Group I, Group II, and Group III were injected i.v. with a vehicle control, 1 mg/ml of wild-type NfsB enzyme (dissolved in 100 mM potassium phosphate buffer, pH 7.4), and 1 mg/ml of the N71S/F124W mutant enzymes (also dissolved in 100 mM potassium phosphate buffer, pH 7.4), respectively, via the tail lateral veins of the FZ-treated mice. The ability of the treated mice to stand on a stainless steel laboratory holder was examined at various time points. A mouse was characterized as losing the reflex ability if it could not stand on the holder for 10 seconds; A mouse was defined as having regained the reflex ability if it could stand on the holder for at least 10 seconds. The time between losing and regaining the reflex ability was defined as sleep-time and recorded for each group.

[4] = NfsB in mice serum by direct competitive ELISA; settings: 24 hours after the injection
Protocol: The ELISA assay used in this study was a modified version of a previously described method.^24 Briefly, 96-well microtitre plates were coated with 100 μL of anti-NfsB antibody solution (4 μg/ml in PBS; 13) overnight at 4° C., then washed with PBS containing 0.05% Tween 20 (PBST) in triplicate, then incubated with a blocking buffer containing PBST and 1% BSA. NfsB standards (containing 40 μl sera of untreated mice), or samples (containing 40 μl sera from treated mice collected 1, 3, 6, 12, and 24 hours after the treatment) were placed in the above-noted blocking buffer (60 μL) and added to the wells, which were incubated overnight at 4° C. Enzyme tracer solution (100 μl 6×His mAb/HRP, 1:10,000 in PBS) were added to the wells and incubated at 37° C. for 30 min Subsequently, the wells were washed and TMB substrate solution was added (100 μl). After incubation for 15 min at room temperature, a sulfuric acid solution (2N, 50 μl) was added to stop color development. The absorbance was measured at 450 nm. […] NfsB concentration in the sera samples of the treated groups were calculated based on the standard curve.

Q: With `Cc1ncc([N+](=O)[O-])n1CCO` [Metronidazole, metronidazole] as the molecule, how does the “inhibitory effect (zones of inhibition) on E. coli cells” value [1] read?
A: Its value is “dose-dependent”.

Q: For `CN1C(=O)CN=C(c2ccccc2F)c2cc([N+](=O)[O-])ccc21` [FZ, flunitrazepam], which “inhibitory effect (zones of inhibition) on E. coli cells” value [1] is on record?
A: The value was “neither exhibited toxicity nor increased MTZ toxicity; also recorded: did not show any inhibitory effect”.

B1: Wild type: Wild-type E. coli type I nitroreductase NfsB (NP-415110; SEQ ID NO:1), His-tagged recombinant protein (protein)
chain: MDIISVALKRHSTKAFDASKKLTPEQAEQIKTLLQYSPSSTNSQPWHFIVASTEEGKARVAKSAAGNYVFNERKMLDASHVVVFCAKTAMDDVWLKLVVDQEDADGRFATPEAKAANDKGRKFFADMHRKDLHDDAEWMAKQVYLNVGNFLLGVAALGLDAVPIEGFDAAILDAEFGLKEKGYTSLVVVPVGHHSVEDFNATLPKSRLPQNITLTEV
modifications: His tag; E. coli
Q: What does the source list for B1?
A: 7AFZ formation ([2]; aerobic): 29.52 ± 6.6 ng; 7AFZ formation ([2]; anaerobic): 51.85 ± 2.19 ng; Km [3]: 71.4 µM; Vmax [3]: 1.89 µM/min; Specific activity [3]: 82.9 nmol/min/mg protein; Specific activity relative to wild type [3]: 1.0 fold; effect on sleep-time in treated mice (in words) (FZ-induced hypnosis): significantly reduced the sleep-time; enzyme remaining in the serum [4]: 30%

B2: F124Y (protein)
chain: MDIISVALKRHSTKAFDASKKLTPEQAEQIKTLLQYSPSSTNSQPWHFIVASTEEGKARVAKSAAGNYVFNERKMLDASHVVVFCAKTAMDDVWLKLVVDQEDADGRFATPEAKAANDKGRKFYADMHRKDLHDDAEWMAKQVYLNVGNFLLGVAALGLDAVPIEGFDAAILDAEFGLKEKGYTSLVVVPVGHHSVEDFNATLPKSRLPQNITLTEV
Q: With B2 as the molecule, how does the “production of 7AFZ compared to the wild-type enzyme (in words)” value [2] read?
A: The value was “higher activity”.

B3: F70Y (protein)
chain: MDIISVALKRHSTKAFDASKKLTPEQAEQIKTLLQYSPSSTNSQPWHFIVASTEEGKARVAKSAAGNYVYNERKMLDASHVVVFCAKTAMDDVWLKLVVDQEDADGRFATPEAKAANDKGRKFFADMHRKDLHDDAEWMAKQVYLNVGNFLLGVAALGLDAVPIEGFDAAILDAEFGLKEKGYTSLVVVPVGHHSVEDFNATLPKSRLPQNITLTEV
Q: With B3 as the molecule, how does the “production of 7AFZ compared to the wild-type enzyme (in words)” value [2] read?
A: The value was “higher activity”.

B4: N71S/F124W: Double mutant N71S/F124W of E. coli type I nitroreductase NfsB (protein)
chain: MDIISVALKRHSTKAFDASKKLTPEQAEQIKTLLQYSPSSTNSQPWHFIVASTEEGKARVAKSAAGNYVFSERKMLDASHVVVFCAKTAMDDVWLKLVVDQEDADGRFATPEAKAANDKGRKFWADMHRKDLHDDAEWMAKQVYLNVGNFLLGVAALGLDAVPIEGFDAAILDAEFGLKEKGYTSLVVVPVGHHSVEDFNATLPKSRLPQNITLTEV
Q: With B4 as the molecule, how does the “7AFZ formation relative to wild-type enzyme” value ([2]; aerobic) read?
A: Its value is 11.77 fold.

Q: What about the 7AFZ formation ([2]; aerobic) of the same molecule?
A: Its 7AFZ formation is 347.56 ± 16.59 ng.

Q: And the “7AFZ formation relative to wild-type enzyme” value ([2]; anaerobic)?
A: The value was 5.6 fold.

Q: What about the 7AFZ formation ([2]; anaerobic) of the same molecule?
A: Its 7AFZ formation is 290.52 ± 18.38 ng.

Q: What about the Km [3] of the same molecule?
A: The Km was 111 µM.

Q: And the Vmax [3]?
A: The Vmax was 3.13 µM/min.

Q: What about the “Vmax relative to wild-type enzyme” value [3] of the same molecule?
A: Its value is 1.7 fold.

Q: And the Specific activity [3]?
A: The Specific activity was 195.5 nmol/min/mg protein.

Q: And the “Specific activity relative to wild type” value [3]?
A: The value was 2.4 fold.

Q: And the “effect on sleep-time in treated mice (in words)” value (FZ-induced hypnosis)?
A: The value was “significantly reduced the sleep-time”.

Q: What about the “decrease of sleeping time compared to the vehicle group” value (FZ-induced hypnosis; FZ-treated mice) of the same molecule?
A: The value was 50%.

Q: And the sleeping time (FZ-induced hypnosis; FZ-treated mice, enzyme 1 mg/ml i.v. one minute after FZ)?
A: Its sleeping time is 138 ± 22 min.

B5: F70H (protein)
chain: MDIISVALKRHSTKAFDASKKLTPEQAEQIKTLLQYSPSSTNSQPWHFIVASTEEGKARVAKSAAGNYVHNERKMLDASHVVVFCAKTAMDDVWLKLVVDQEDADGRFATPEAKAANDKGRKFFADMHRKDLHDDAEWMAKQVYLNVGNFLLGVAALGLDAVPIEGFDAAILDAEFGLKEKGYTSLVVVPVGHHSVEDFNATLPKSRLPQNITLTEV
Q: With B5 as the molecule, how does the “production of 7AFZ compared to the wild-type enzyme (in words)” value [2] read?
A: The value was “higher activity”.

B6: N71S (protein)
chain: MDIISVALKRHSTKAFDASKKLTPEQAEQIKTLLQYSPSSTNSQPWHFIVASTEEGKARVAKSAAGNYVFSERKMLDASHVVVFCAKTAMDDVWLKLVVDQEDADGRFATPEAKAANDKGRKFFADMHRKDLHDDAEWMAKQVYLNVGNFLLGVAALGLDAVPIEGFDAAILDAEFGLKEKGYTSLVVVPVGHHSVEDFNATLPKSRLPQNITLTEV
Q: For B6, which “7AFZ formation relative to wild-type enzyme” value ([2]; anaerobic) is on record?
A: Its value is 2.4 fold.

Q: And the “production of 7AFZ compared to the wild-type enzyme (in words)” value [2]?
A: The value was “significantly increased”.

Q: What about the 7AFZ formation ([2]; anaerobic) of the same molecule?
A: The 7AFZ formation was 126 ± 2.06 ng.

B7: T41L (protein)
chain: MDIISVALKRHSTKAFDASKKLTPEQAEQIKTLLQYSPSSLNSQPWHFIVASTEEGKARVAKSAAGNYVFNERKMLDASHVVVFCAKTAMDDVWLKLVVDQEDADGRFATPEAKAANDKGRKFFADMHRKDLHDDAEWMAKQVYLNVGNFLLGVAALGLDAVPIEGFDAAILDAEFGLKEKGYTSLVVVPVGHHSVEDFNATLPKSRLPQNITLTEV
Q: With B7 as the molecule, how does the “production of 7AFZ compared to the wild-type enzyme (in words)” value [2] read?
A: Its value is “significantly increased”.

B8: S40G (protein)
chain: MDIISVALKRHSTKAFDASKKLTPEQAEQIKTLLQYSPSGTNSQPWHFIVASTEEGKARVAKSAAGNYVFNERKMLDASHVVVFCAKTAMDDVWLKLVVDQEDADGRFATPEAKAANDKGRKFFADMHRKDLHDDAEWMAKQVYLNVGNFLLGVAALGLDAVPIEGFDAAILDAEFGLKEKGYTSLVVVPVGHHSVEDFNATLPKSRLPQNITLTEV
Q: Which “production of 7AFZ compared to the wild-type enzyme (in words)” value [2] does the source give for B8 here?
A: The value was “higher activity”.

B9: F124H (protein)
chain: MDIISVALKRHSTKAFDASKKLTPEQAEQIKTLLQYSPSSTNSQPWHFIVASTEEGKARVAKSAAGNYVFNERKMLDASHVVVFCAKTAMDDVWLKLVVDQEDADGRFATPEAKAANDKGRKFHADMHRKDLHDDAEWMAKQVYLNVGNFLLGVAALGLDAVPIEGFDAAILDAEFGLKEKGYTSLVVVPVGHHSVEDFNATLPKSRLPQNITLTEV
Q: Which “production of 7AFZ compared to the wild-type enzyme (in words)” value [2] does the source give for B9 here?
A: Its value is “significantly increased”.

B10: Y68G (protein)
chain: MDIISVALKRHSTKAFDASKKLTPEQAEQIKTLLQYSPSSTNSQPWHFIVASTEEGKARVAKSAAGNGVFNERKMLDASHVVVFCAKTAMDDVWLKLVVDQEDADGRFATPEAKAANDKGRKFFADMHRKDLHDDAEWMAKQVYLNVGNFLLGVAALGLDAVPIEGFDAAILDAEFGLKEKGYTSLVVVPVGHHSVEDFNATLPKSRLPQNITLTEV
Q: With B10 as the molecule, how does the “production of 7AFZ compared to the wild-type enzyme (in words)” value [2] read?
A: Its value is “significantly increased”.

B11: F124W (protein)
chain: MDIISVALKRHSTKAFDASKKLTPEQAEQIKTLLQYSPSSTNSQPWHFIVASTEEGKARVAKSAAGNYVFNERKMLDASHVVVFCAKTAMDDVWLKLVVDQEDADGRFATPEAKAANDKGRKFWADMHRKDLHDDAEWMAKQVYLNVGNFLLGVAALGLDAVPIEGFDAAILDAEFGLKEKGYTSLVVVPVGHHSVEDFNATLPKSRLPQNITLTEV
Q: What does the source list for B11?
A: 7AFZ formation relative to wild-type enzyme ([2]; anaerobic): 2.7 fold; production of 7AFZ compared to the wild-type enzyme (in words) [2]: significantly increased; 7AFZ formation ([2]; anaerobic): 141.88 ± 5.28 ng
